The values below are quoted from earlier work in PMC7460564.

Like-named read-outs stand apart in the source and are kept apart here.

Series [1] addresses EGFR ECD (Homo sapiens) (UniProt P00533).
The target in series [2] is HER2 (Homo sapiens) (UniProt P04626).
Series [3] deals with EGFR (Homo sapiens) (UniProt P00533).
Series [4] addresses EGFR ECD (Homo sapiens) (UniProt P00533). This is another data set of the same source.

Turning to PEPD (prolidase) (from UniProt P12955), the Kd (as a rule, the constant that tells how readily two partners part at equilibrium) was 5.3 µM in series [1], 7.3 nM in series [2] and 17.7 nM in series [3].
For EGF (from UniProt P01133), the Kd in series [4] was 15 nM.
